Where two headings read alike, the source gives them in different places.
Assays:
[1] = molecular target: wild type human TSHR (human) (UniProt P16473); assay: cell-based or functional assay
[2] = molecular target: TSHR with Arg80 mutated to Aspartic acid (human) (UniProt P16473); assay: cell-based or functional assay
[3] = molecular target: TSHR coated onto tubes (human) (UniProt P16473); assay: TSHR coated tubes, competitor 125I-M22 IgG
[4] = molecular target: TSHR coated onto tubes (human) (UniProt P16473); assay: TSHR coated tubes, competitor 125I-TSH
[5] = molecular target: TSHR with Arg255 mutated to Alanine (human) (UniProt P16473); assay: cell-based or functional assay
[6] = molecular target: wild type human TSHR (human) (UniProt P16473); assay: cell-based or functional assay; remark: listed apart in the source
[7] = molecular target: TSHR with Phe134 mutated to Alanine (human) (UniProt P16473); assay: cell-based or functional assay

Chain of 5C9 IgG (antibody) (VH): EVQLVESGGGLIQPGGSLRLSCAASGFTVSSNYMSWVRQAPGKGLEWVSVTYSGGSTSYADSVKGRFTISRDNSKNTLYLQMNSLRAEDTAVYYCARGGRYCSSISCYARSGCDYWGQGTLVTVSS
Chain of 5C9 IgG (antibody) (VL): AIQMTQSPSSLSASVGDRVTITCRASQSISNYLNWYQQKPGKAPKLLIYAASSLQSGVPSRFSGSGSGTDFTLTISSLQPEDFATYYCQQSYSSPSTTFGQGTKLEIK

5C9 IgG (antibody) showed a cyclic AMP; 5C9 0.01 µg/mL + TSH (fmol/cell well) [1] of 13100, a cyclic AMP; 5C9 0.1 µg/mL + TSH (fmol/cell well) [1] of 6330 and a cyclic AMP; 5C9 1.0 µg/mL + TSH (fmol/cell well) [1] of 2640. The cyclic AMP; 5C9 10 µg/mL + TSH (fmol/cell well) [1] was 1910, the cyclic AMP; 5C9 100 µg/mL + TSH (fmol/cell well) [1] was 1610 and the cyclic AMP; 5C9 100 µg/mL only (fmol/cell well) [1] was 300. The Mutated/wild type (%); 5C9 0.01 µg/mL + TSH [2] was 161%, the Mutated/wild type (%); 5C9 0.1 µg/mL + TSH [2] was 70% and the Mutated/wild type (%); 5C9 1.0 µg/mL + TSH [2] was 73%. It also gave a Mutated/wild type (%); 5C9 10 µg/mL + TSH [2] of 66%, a Mutated/wild type (%); 5C9 100 µg/mL + TSH [2] of 79% and a Mutated/wild type (%); 5C9 100 µg/mL only [2] of 174%. It also gave a cyclic AMP; 5C9 0.01 µg/mL + TSH (fmol/cell well) [2] of 21000, a cyclic AMP; 5C9 0.1 µg/mL + TSH (fmol/cell well) [2] of 4420 and a cyclic AMP; 5C9 1.0 µg/mL + TSH (fmol/cell well) [2] of 1910. For the same substance, the cyclic AMP; 5C9 10 µg/mL + TSH (fmol/cell well) [2] was 1250, the cyclic AMP; 5C9 100 µg/mL + TSH (fmol/cell well) [2] was 1270 and the cyclic AMP; 5C9 100 µg/mL only (fmol/cell well) [2] was 523. The % inhib of 125I-M22 IgG binding at 0.01 µg/mL [3] was 5%, the % inhib of 125I-M22 IgG binding at 0.1 µg/mL [3] was 6% and the % inhib of 125I-M22 IgG binding at 1 µg/mL [3] was 14%. For the same substance, the % inhib of 125I-M22 IgG binding at 10 µg/mL [3] was 22%, the % inhib of 125I-M22 IgG binding at 100 µg/mL [3] was 53% and the % inhib of 125I-TSH binding at 0.01 µg/mL [4] was 2%. For the same substance, the % inhib of 125I-TSH binding at 0.1 µg/mL [4] was 8%, the % inhib of 125I-TSH binding at 1 µg/mL [4] was 21% and the % inhib of 125I-TSH binding at 10 µg/mL [4] was 30%. It also gave a % inhib of 125I-TSH binding at 100 µg/mL [4] of 50%, a Mutated/wild type (%); 5C9 0.01 µg/mL + TSH [5] of 123% and a Mutated/wild type (%); 5C9 0.1 µg/mL + TSH [5] of 109%. The Mutated/wild type (%); 5C9 1.0 µg/mL + TSH [5] was 201%, the Mutated/wild type (%); 5C9 10 µg/mL + TSH [5] was 80% and the Mutated/wild type (%); 5C9 100 µg/mL + TSH [5] was 80%. It also gave a Mutated/wild type (%); 5C9 100 µg/mL only [5] of 775%, a cyclic AMP; 5C9 0.01 µg/mL + TSH (fmol/cell well) [5] of 8120 and a cyclic AMP; 5C9 0.1 µg/mL + TSH (fmol/cell well) [5] of 4140. The cyclic AMP; 5C9 1.0 µg/mL + TSH (fmol/cell well) [5] was 1940, the cyclic AMP; 5C9 10 µg/mL + TSH (fmol/cell well) [5] was 692 and the cyclic AMP; 5C9 100 µg/mL + TSH (fmol/cell well) [5] was 809. For the same substance, the cyclic AMP; 5C9 100 µg/mL only (fmol/cell well) [5] was 248, the cyclic AMP; 5C9 0.01 µg/mL + TSH (fmol/cell well) [6] was 13600 and the cyclic AMP; 5C9 0.1 µg/mL + TSH (fmol/cell well) [6] was 8700. For the same substance, the cyclic AMP; 5C9 1.0 µg/mL + TSH (fmol/cell well) [6] was 4540, the cyclic AMP; 5C9 10 µg/mL + TSH (fmol/cell well) [6] was 2390 and the cyclic AMP; 5C9 100 µg/mL + TSH (fmol/cell well) [6] was 1390. For the same substance, the cyclic AMP; 5C9 100 µg/mL only (fmol/cell well) [6] was 212, the Mutated/wild type (%); 5C9 0.01 µg/mL + TSH [7] was 117% and the Mutated/wild type (%); 5C9 0.1 µg/mL + TSH [7] was 73%. It also gave a Mutated/wild type (%); 5C9 1.0 µg/mL + TSH [7] of 43%, a Mutated/wild type (%); 5C9 10 µg/mL + TSH [7] of 44% and a Mutated/wild type (%); 5C9 100 µg/mL + TSH [7] of 77%. The Mutated/wild type (%); 5C9 100 µg/mL only [7] was 159%, the cyclic AMP; 5C9 0.01 µg/mL + TSH (fmol/cell well) [7] was 15900 and the cyclic AMP; 5C9 0.1 µg/mL + TSH (fmol/cell well) [7] was 6370. For the same substance, the cyclic AMP; 5C9 1.0 µg/mL + TSH (fmol/cell well) [7] was 1940, the cyclic AMP; 5C9 10 µg/mL + TSH (fmol/cell well) [7] was 1060 and the cyclic AMP; 5C9 100 µg/mL + TSH (fmol/cell well) [7] was 1070. For the same substance, the cyclic AMP; 5C9 100 µg/mL only (fmol/cell well) [7] was 337.

— patent US8840891 (RSR, dated 2014)
